The results in this text go back to article PMC3472557, “Structural Basis for ASPP2 Recognition by the Tumor Suppressor p73” (Journal of Molecular Biology, 2012).

For the test, the target named is T1, ankyrin repeat and SH3 domains of human ASPP2 (residues P891–A1128) (human, UniProt Q13625 891-1128).
T1 construct: ASPP2 (53BP2), human, ankyrin repeat and SH3 domains, residues P891-A1128, UniProt Q13625; cloned into pCOEX-LIC1; The limits are stated for the crystallised construct; also called 53BP2; source: E. coli BL21(DE3) R3 pRARE, purified (nickel-Sepharose, TEV protease, HiTrap Q, Superdex 200); not shown: His6, N-terminal, cleaved
T1 sequence (looked up): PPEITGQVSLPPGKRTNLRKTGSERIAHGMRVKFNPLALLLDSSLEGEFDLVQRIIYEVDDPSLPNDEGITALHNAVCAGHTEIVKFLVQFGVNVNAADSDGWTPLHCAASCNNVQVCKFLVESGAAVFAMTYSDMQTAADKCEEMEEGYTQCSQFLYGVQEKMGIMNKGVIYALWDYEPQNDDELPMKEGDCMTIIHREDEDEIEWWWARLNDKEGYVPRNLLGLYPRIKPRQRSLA
The experiment in a line: native gel or EMSA; 20 uM ASPP2 with decreasing concentrations of p73 112-315; 4 °C overnight; 50 mM sodium phosphate, pH 7.2, 50 mM NaCl, 5 mM DTT, 50 mM L-arginine, 50 mM L-glutamate; 10% polyacrylamide gel in Tris-glycine, pH 8.3, Coomassie stain. The conditions noted are these: both partners purified. A general note: A gel shift assay detects complexes by their altered migration in electrophoresis.

B1: p73 DBD (p73 amino acids 112–315) (domain or fragment, human, UniProt O15350 112-315, looked up)
chain: APVIPSNTDYPGPHHFEVTFQQSSTAKSATWTYSPLLKKLYCQIAKTCPIQIKVSTPPPPGTAIRAMPVYKKAEHVTDVVKRCPNHELGRDFNEGQSAPASHLIRVEGNNLSQYVDDPVTGRQSVVVPYEPPQVGTEFTTILYNFMCNSSCVGGMNRRPILIIITLEMRDGQVLGRRSFEGRICACPGRDRKADEDHYREQQAL
notes: It may be a misprint for 112-311; source: E. coli BL21(DE3) R3 pRARE, purified (said of all proteins)
B1: the binding result is listed as “binds”.
